Assay results reported in the supplement of paper PMC10567573.

B1: DYRK1B (parent)
chain: ARKYFERLPGGGWTLRRTKELRKD

Variants of: B1
Assay: protein stability index of a GFP-peptide fusion (GPS, HEK-293T) (PSI 1-6); higher = more stable
Conditions: c terminus: a fixed tail appended
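Also: lentivirally expressed fusions sorted by FACS into six bins by GFP to DsRed ratio, PSI derived from sequencing read proportions per bin multiplied by bin number.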

Row | Variant | protein stability index
1 | ARKWFERLPGGGWTLRRTKELRKD [Y4W] | 2.2
2 | ARKPFERLPGGGWTLRRTKELRKD [Y4P] | 4.82
3 | ARKAFERLPGGGWTLRRTKELRKD [Y4A] | 2.7
4 | ARKRFERLPGGGWTLRRTKELRKD [Y4R] | 4.29
5 | ARKNFERLPGGGWTLRRTKELRKD [Y4N] | 4.17
6 | ARKVFERLPGGGWTLRRTKELRKD [Y4V] | 3.44
7 | ARKMFERLPGGGWTLRRTKELRKD [Y4M] | 3.21
8 | ARKQFERLPGGGWTLRRTKELRKD [Y4Q] | 3.34
9 | ARKLFERLPGGGWTLRRTKELRKD [Y4L] | 3.14
10 | ARKCFERLPGGGWTLRRTKELRKD [Y4C] | 3.29
11 | ARKIFERLPGGGWTLRRTKELRKD [Y4I] | 2.87
12 | ARKEFERLPGGGWTLRRTKELRKD [Y4E] | 3.76
13 | ARKHFERLPGGGWTLRRTKELRKD [Y4H] | 4.07
14 | ARKDFERLPGGGWTLRRTKELRKD [Y4D] | 4.48
15 | ARKGFERLPGGGWTLRRTKELRKD [Y4G] | 4.37
16 | ARKSFERLPGGGWTLRRTKELRKD [Y4S] | 3.37
17 | ARKTFERLPGGGWTLRRTKELRKD [Y4T] | 3.14
18 | ARKFFERLPGGGWTLRRTKELRKD [Y4F] | 2.91
19 | ARKYFERLPAGGWTLRRTKELRKD [G10A] | 2.93
20 | ARKYFERLPDGGWTLRRTKELRKD [G10D] | 4.16
21 | ALKYFERLPGGGWTLRRTKELRKD [R2L] | 2.96
22 | ACKYFERLPGGGWTLRRTKELRKD [R2C] | 3.03
23 | AEKYFERLPGGGWTLRRTKELRKD [R2E] | 4.64
24 | ASKYFERLPGGGWTLRRTKELRKD [R2S] | 4.28

Row | Variant | protein stability index
25 | AHKYFERLPGGGWTLRRTKELRKD [R2H] | 2.73
26 | AMKYFERLPGGGWTLRRTKELRKD [R2M] | 2.79
27 | ANKYFERLPGGGWTLRRTKELRKD [R2N] | 3.55
28 | AKKYFERLPGGGWTLRRTKELRKD [R2K] | 4.25
29 | ATKYFERLPGGGWTLRRTKELRKD [R2T] | 3.52
30 | ADKYFERLPGGGWTLRRTKELRKD [R2D] | 4.1
31 | APKYFERLPGGGWTLRRTKELRKD [R2P] | 4.56
32 | AFKYFERLPGGGWTLRRTKELRKD [R2F] | 3.89
33 | AYKYFERLPGGGWTLRRTKELRKD [R2Y] | 3.85
34 | AWKYFERLPGGGWTLRRTKELRKD [R2W] | 2.38
35 | AIKYFERLPGGGWTLRRTKELRKD [R2I] | 2.83
36 | AQKYFERLPGGGWTLRRTKELRKD [R2Q] | 3.33
37 | AGKYFERLPGGGWTLRRTKELRKD [R2G] | 3.74
38 | AAKYFERLPGGGWTLRRTKELRKD [R2A] | 3.77
39 | SRKYFERLPGGGWTLRRTKELRKD [A1S] | 3.9
40 | VRKYFERLPGGGWTLRRTKELRKD [A1V] | 3.19
41 | ERKYFERLPGGGWTLRRTKELRKD [A1E] | 3.96
42 | NRKYFERLPGGGWTLRRTKELRKD [A1N] | 3.69
43 | DRKYFERLPGGGWTLRRTKELRKD [A1D] | 4.11
44 | IRKYFERLPGGGWTLRRTKELRKD [A1I] | 2.47
45 | TRKYFERLPGGGWTLRRTKELRKD [A1T] | 3.31
46 | QRKYFERLPGGGWTLRRTKELRKD [A1Q] | 3.7
47 | HRKYFERLPGGGWTLRRTKELRKD [A1H] | 3.66
48 | KRKYFERLPGGGWTLRRTKELRKD [A1K] | 4.13

Row | Variant | protein stability index
49 | LRKYFERLPGGGWTLRRTKELRKD [A1L] | 2.36
50 | GRKYFERLPGGGWTLRRTKELRKD [A1G] | 3.78
51 | YRKYFERLPGGGWTLRRTKELRKD [A1Y] | 2.27
52 | FRKYFERLPGGGWTLRRTKELRKD [A1F] | 2.44
53 | MRKYFERLPGGGWTLRRTKELRKD [A1M] | 2.84
54 | PRKYFERLPGGGWTLRRTKELRKD [A1P] | 2.89
55 | RRKYFERLPGGGWTLRRTKELRKD [A1R] | 3.19
56 | ARKYVERLPGGGWTLRRTKELRKD [F5V] | 3.98
57 | ARKYYERLPGGGWTLRRTKELRKD [F5Y] | 4.08
58 | ARKYSERLPGGGWTLRRTKELRKD [F5S] | 4.35
59 | ARKYMERLPGGGWTLRRTKELRKD [F5M] | 2.98
60 | ARKYIERLPGGGWTLRRTKELRKD [F5I] | 2.91
61 | ARKYLERLPGGGWTLRRTKELRKD [F5L] | 3.83
62 | ARKYEERLPGGGWTLRRTKELRKD [F5E] | 4.26
63 | ARKYNERLPGGGWTLRRTKELRKD [F5N] | 4.02
64 | ARKYAERLPGGGWTLRRTKELRKD [F5A] | 3.86
65 | ARKYQERLPGGGWTLRRTKELRKD [F5Q] | 3.71
66 | ARKYKERLPGGGWTLRRTKELRKD [F5K] | 4.25
67 | ARKYRERLPGGGWTLRRTKELRKD [F5R] | 3.58
68 | ARKYGERLPGGGWTLRRTKELRKD [F5G] | 3.63
69 | ARKYDERLPGGGWTLRRTKELRKD [F5D] | 3.84
70 | ARKYHERLPGGGWTLRRTKELRKD [F5H] | 3.82
71 | ARKYFERLCGGGWTLRRTKELRKD [P9C] | 1.91
72 | ARKYFERLYGGGWTLRRTKELRKD [P9Y] | 1.9

Row | Variant | protein stability index
73 | ARKYFERLKGGGWTLRRTKELRKD [P9K] | 2.5
74 | ARKYFERLFGGGWTLRRTKELRKD [P9F] | 1.87
75 | ARKYFERLDGGGWTLRRTKELRKD [P9D] | 4.24
76 | ARKYFERLWGGGWTLRRTKELRKD [P9W] | 2.11
77 | ARKYFERLEGGGWTLRRTKELRKD [P9E] | 3.41
78 | ARKYFERLVGGGWTLRRTKELRKD [P9V] | 2.96
79 | ARKYFERLNGGGWTLRRTKELRKD [P9N] | 1.97
80 | ARKYFERLHGGGWTLRRTKELRKD [P9H] | 2.48
81 | ARKYFERLLGGGWTLRRTKELRKD [P9L] | 2.43
82 | ARKYFERLQGGGWTLRRTKELRKD [P9Q] | 3.67
83 | ARKYFERLRGGGWTLRRTKELRKD [P9R] | 3.22
84 | ARKYFERLTGGGWTLRRTKELRKD [P9T] | 3.02
85 | ARKYFERLIGGGWTLRRTKELRKD [P9I] | 2.13
86 | ARKYFERLAGGGWTLRRTKELRKD [P9A] | 2.83
87 | ARKYFERYPGGGWTLRRTKELRKD [L8Y] | 4.07
88 | ARKYFEREPGGGWTLRRTKELRKD [L8E] | 3.71
89 | ARKYFERQPGGGWTLRRTKELRKD [L8Q] | 3.38
90 | ARKYFERNPGGGWTLRRTKELRKD [L8N] | 3.4
91 | ARKYFERSPGGGWTLRRTKELRKD [L8S] | 5.45
92 | ARKYFERDPGGGWTLRRTKELRKD [L8D] | 4.19
93 | ARKYFERWPGGGWTLRRTKELRKD [L8W] | 2.13
94 | ARKYFERIPGGGWTLRRTKELRKD [L8I] | 3.5
